Blank lines part the entries; values can stand above or below the binder they belong to. Where no end group is shown, it is not given here.
Target: T1, calcitonin receptor (human, UniProt P30988 25-474)
T1 sequence (looked up): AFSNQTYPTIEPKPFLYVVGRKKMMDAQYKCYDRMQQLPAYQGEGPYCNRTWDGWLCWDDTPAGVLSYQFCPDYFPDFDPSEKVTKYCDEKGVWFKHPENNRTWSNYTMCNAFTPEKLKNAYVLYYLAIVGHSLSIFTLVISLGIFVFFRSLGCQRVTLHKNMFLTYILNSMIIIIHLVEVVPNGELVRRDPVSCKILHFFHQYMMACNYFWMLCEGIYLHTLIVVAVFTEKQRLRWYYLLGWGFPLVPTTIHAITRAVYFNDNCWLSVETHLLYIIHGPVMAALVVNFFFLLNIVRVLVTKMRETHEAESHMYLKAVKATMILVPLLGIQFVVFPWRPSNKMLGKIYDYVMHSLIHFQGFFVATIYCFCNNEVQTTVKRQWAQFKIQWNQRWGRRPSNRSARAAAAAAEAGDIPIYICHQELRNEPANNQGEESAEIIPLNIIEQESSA
Test: cell-based or functional assay

- intracellular cAMP in T47D cells, % of native sCT activity, at 50 nM: 98%
- intracellular cAMP in T47D cells, % of native sCT activity, at 100 nM: 115%
- intracellular cAMP in T47D cells, % of native sCT activity, at 10 mM (so in the source): 94.3%
B1: sCT-SMCC (peptide)
peptide: CSNLSTCVLGKLSQELHKLQTYPRTNTGSGTP
modifications: ends and bridges not checked; also: mixture of mono-, di- and tri-substituted: SMCC group in amide bond on Lys11, Lys18 and/or N-terminus

- intracellular cAMP in T47D cells, % of native sCT activity, at 50 nM: 102%
- intracellular cAMP in T47D cells, % of native sCT activity, at 100 nM: 99.8%
- intracellular cAMP in T47D cells, % of native sCT activity, at 10 mM (so in the source): 92.8%
B2: sCT-BP (peptide)
peptide: B1 peptide
modifications: ends and bridges not checked; also: mixture: SMCC linker carrying thiol bisphosphonate on Lys11, Lys18 and/or N-terminus (2-3 SMCC, 1-3 BP)
